Consider one molecule from publication PMC12104086, “Identification of a multiple DAMP scavenger mimicking the DAMP-binding site of TLR4 to ameliorate lethal sepsis” (Frontiers in Immunology, 2025).

Test [1] deals with T1, recombinant mouse cold-inducible RNA-binding protein (mouse, UniProt P60824 1-172).
T1 construct: also called rmCIRP; eCIRP
T1 sequence (looked up): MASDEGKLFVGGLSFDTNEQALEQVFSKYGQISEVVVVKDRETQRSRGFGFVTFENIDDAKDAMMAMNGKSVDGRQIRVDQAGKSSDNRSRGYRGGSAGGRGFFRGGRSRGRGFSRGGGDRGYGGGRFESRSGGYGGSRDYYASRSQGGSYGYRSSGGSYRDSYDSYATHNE
The test is described as follows: SPR; OpenSPR (Nicoya); OP18 (10 µg/mL in 10 mM acetate pH 5) immobilised on channel 2, channel 1 as reference; analytes eCIRP 31.3-2,000 nM, HMGB1 10-450 nM, αvβ3 integrin 10-100 nM, histone H3 22.5-270 nM in HBST (10 mM HEPES, 150 mM NaCl, 0.005% P20, 5 mM EDTA, pH 7.4); 40 µL/min, 20°C; global fit 1:1. As to conditions: both partners purified. (Surface plasmon resonance follows binding to a sensor surface in real time, without labels.)

The target in test [2] is T2, recombinant human high mobility group box 1 (human, UniProt P09429 1-215).
T2 construct: human HMGB1, recombinant, bought; see the vendor's sheet; also called rhHMGB1; HMGB1; source: bought: R&D System (Cat. No. 1690-HMB-050)
T2 sequence (looked up): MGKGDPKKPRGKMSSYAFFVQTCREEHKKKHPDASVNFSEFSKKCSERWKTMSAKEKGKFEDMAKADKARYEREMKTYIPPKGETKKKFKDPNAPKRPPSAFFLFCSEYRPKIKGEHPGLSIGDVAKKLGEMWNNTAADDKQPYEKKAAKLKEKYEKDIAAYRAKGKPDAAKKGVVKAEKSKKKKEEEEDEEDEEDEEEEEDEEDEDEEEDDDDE
The test is described as above. Conditions: both partners purified.

B1: opsonic peptide 18 (peptide)
peptide: GNFNSSNIMKTCLQNRGD
notes: also called OP18; source: synthetic peptide (GenScript)
On to B1, for which the binding result in test [1] and in test [2] was “binds” in each case.
